molecular target: human IgM (Calbiochem 401108) (human); test: SPR; IgM amine-coupled to a GLC sensor chip (about 10,000 RU, pH 5), ProteOn XP36; DBL4ζ proteins flowed at 600-18.75 nM, 25 μl/min, 25 °C, 10 mM Tris pH 7.4, 140 mM NaCl, 2 mM CaCl2, 0.005% Tween-20; 1:1 Langmuir kinetic model

First: recombinant TM284var1 DBL4ζ E1663R (his-tagged, E. coli) (domain or fragment)
Second: recombinant TM284var1 DBL4ζ E1663R, E1665R, R1764E, E1779K (his-tagged, E. coli) (domain or fragment)
The Kd of the first is 2.8-fold higher: 115 nM for the first, 41.2 nM for the second.

“recombinant TM284var1 DBL4ζ E1663R, R1764E (his-tagged, E. coli) (domain or fragment)” and “recombinant TM284var1 DBL4ζ R1764E (his-tagged, E. coli) (domain or fragment)” are within 1.5-fold of each other in Kd: 33.2 nM for the first, 41.6 nM for the second.

“recombinant TM284var1 DBL4ζ wild type (his-tagged, E. coli) (domain or fragment)” was tested, and the Kd was 66.2 nM.

Compared with “recombinant TM284var1 DBL4ζ E1663R (his-tagged, E. coli) (domain or fragment)”, “recombinant TM284var1 DBL4ζ E1663R, E1665R, R1764E, E1779K (his-tagged, E. coli) (domain or fragment)” is 5.8-fold lower in koff: 0.0148 s⁻¹ for the first, 0.00254 s⁻¹ for the second.

“recombinant TM284var1 DBL4ζ E1663R, R1764E (his-tagged, E. coli) (domain or fragment)” and “recombinant TM284var1 DBL4ζ R1764E (his-tagged, E. coli) (domain or fragment)” are within 1.5-fold of each other in koff: 0.00159 s⁻¹ for the first, 0.00189 s⁻¹ for the second.

“recombinant TM284var1 DBL4ζ wild type (his-tagged, E. coli) (domain or fragment)” gave a koff of 0.0118 s⁻¹.

Going from “recombinant TM284var1 DBL4ζ E1663R (his-tagged, E. coli) (domain or fragment)” to “recombinant TM284var1 DBL4ζ E1663R, E1665R, R1764E, E1779K (his-tagged, E. coli) (domain or fragment)”, the kon falls from 129000 M⁻¹ s⁻¹ to 61600 M⁻¹ s⁻¹ (2.1-fold).

“recombinant TM284var1 DBL4ζ E1663R, R1764E (his-tagged, E. coli) (domain or fragment)” and “recombinant TM284var1 DBL4ζ R1764E (his-tagged, E. coli) (domain or fragment)” are within 1.5-fold of each other in kon: 49400 M⁻¹ s⁻¹ for the first, 45100 M⁻¹ s⁻¹ for the second.

“recombinant TM284var1 DBL4ζ wild type (his-tagged, E. coli) (domain or fragment)” was tested, and the kon was 179000 M⁻¹ s⁻¹.

— paper PMC4539346
